Experimental data reported in US12465660B2, “Compositions and methods for cancer imaging and radiotherapy” (VECT-HORUS, priority 2017, dated 2025).
Positions of bridges follow the written chain, without caps; N, C: chain ends. Non-standard residues stand in square brackets, D forms with d. Primed or numbered codes have the meaning given here. No end group written: not given here. *: point of attachment. DOTA = O=C(O)CN1CCN(CC(=O)O)CCN(CC(=O)*)CCN(CC(=O)O)CC1; NODAGA′ = not defined here; PEG12′ = not defined here; βAla = NCCC(=O)O

Experiments:
[1] = target: T1, Recombinant human LDLR (His-tagged) (Homo sapiens, UniProt P01130); test: SPR affinity of conjugates A, B, C and D for LDLR (Biacore T200); assay type: binding; details: 25° C.
T1 construct: purchased Sino Biological (Beijing, China)
T1 sequence (P01130 22-860): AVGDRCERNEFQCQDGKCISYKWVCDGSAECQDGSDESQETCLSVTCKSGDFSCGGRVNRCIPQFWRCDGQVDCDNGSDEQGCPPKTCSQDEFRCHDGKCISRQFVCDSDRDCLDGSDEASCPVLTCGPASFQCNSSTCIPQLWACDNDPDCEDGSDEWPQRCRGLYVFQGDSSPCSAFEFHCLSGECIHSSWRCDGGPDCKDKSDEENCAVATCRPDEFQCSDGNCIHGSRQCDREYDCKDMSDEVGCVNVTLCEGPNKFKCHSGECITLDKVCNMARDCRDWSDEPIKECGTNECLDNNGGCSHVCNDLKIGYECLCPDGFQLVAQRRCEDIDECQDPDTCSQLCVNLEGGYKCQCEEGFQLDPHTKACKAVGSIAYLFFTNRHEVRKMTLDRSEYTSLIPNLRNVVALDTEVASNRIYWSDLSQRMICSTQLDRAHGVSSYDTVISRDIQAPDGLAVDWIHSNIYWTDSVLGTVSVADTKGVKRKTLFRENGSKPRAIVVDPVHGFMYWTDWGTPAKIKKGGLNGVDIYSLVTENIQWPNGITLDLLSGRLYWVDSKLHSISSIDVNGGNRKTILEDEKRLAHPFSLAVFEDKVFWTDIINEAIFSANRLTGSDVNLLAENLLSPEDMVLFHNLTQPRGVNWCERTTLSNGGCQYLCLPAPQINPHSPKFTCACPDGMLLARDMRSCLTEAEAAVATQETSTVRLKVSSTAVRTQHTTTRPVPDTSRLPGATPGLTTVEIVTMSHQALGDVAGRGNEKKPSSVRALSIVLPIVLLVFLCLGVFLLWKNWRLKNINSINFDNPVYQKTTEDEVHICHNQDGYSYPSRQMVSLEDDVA
Method: (§1) Recombinant human LDLR (His-tagged) was purchased from Sino Biological (Beijing, China). Interaction of conjugates with LDLR was tested at 25° C. using a Biacore T200 (GE Healthcare) and 50 mM HEPES-NaOH pH7.4, 150 mM NaCl, 0.005% Tween-20, 50 μM EDTA as running buffer. hLDLR was immobilized on a NiHC sensor chip (Xantec, Dusseldorf, Germany) at a density of 35-60 fmol/mm^2. Binding of conjugates to LDLR-coated flow cells was corrected for non-specific binding to uncoated flow cells. The single-cycle kinetic method was used to measure the affinity of ligands with LDLR. Ligands were diluted in running buffer and injected sequentially 2 minutes at 30 μl/min using increasing concentrations. Blank run injections of running buffer were performed in the same conditions before ligand injection. Double-subtracted sensorgrams were globally fitted with the 1:1 Langmuir binding model from Biacore T200 Evaluation version 2.0.

CHO-hLDLR-GFP cells = test: Binding/endocytosis of fluorescent conjugates by LDLR expressing cells (confocal microscopy); assay type: cell-based, Chinese Hamster; details: live cells, 1 hour at 37° C.
Description: In these experiments, with regards to FIG. 2, the LDLR-GFP signal is visualized in column 2, the conjugate signal is either directly visualized in column 4 using the A680 fluorescence or in column 3 using an anti-hFc-A594 conjugated secondary antibody. Cell nuclei were stained in blue with Hoechst and its signal can be visualized in column 1. The co-labelling of LDLR-GFP and conjugates can be visualized as a highlight signal in column 5 on the merge image.

[2] = target: T1, Recombinant human LDLR (His-tagged); test: SPR affinity of MG04/VH-DO35, CH44, FG770, CH40 and FG769 for LDLR (Biacore T200); assay type: binding; details: 25° C.
Method: as §1

KD [1] | KD [2] | Substance | binding to and endocytosis by CHO-hLDLR-GFP cells (CHO-hLDLR-GFP cells)
No Binding |  | Fc-Peptide D-A680 (CRMLGRPC; cysteine pairing not given here; also: fused to a dimerising Fc or GST) [Conjugate D, control] | are not
 | No Binding | NODAGA-βAla-PEG12-SEQ ID NO: 13-NH2 ({NODAGA′-βAla-PEG12′}-[dC]RPLGRMC-NH2; disulfide 1-8) [CH40, scrambled counterpart of CH44] | 
 | No Binding | DOTA-βAla-PEG12-SEQ ID NO: 13-NH2 ({DOTA-βAla-PEG12′}-[dC]RPLGRMC-NH2; disulfide 1-8) [FG769, scrambled counterpart of FG770] | 
